Here are results for four molecules from patent US20140294861A1 (University of Pennsylvania, published 2014).

Assay [1] deals with T1, human B7-H4 expressed at the cell surface (human, UniProt Q7Z7D3 25-282).
T1 sequence (looked up): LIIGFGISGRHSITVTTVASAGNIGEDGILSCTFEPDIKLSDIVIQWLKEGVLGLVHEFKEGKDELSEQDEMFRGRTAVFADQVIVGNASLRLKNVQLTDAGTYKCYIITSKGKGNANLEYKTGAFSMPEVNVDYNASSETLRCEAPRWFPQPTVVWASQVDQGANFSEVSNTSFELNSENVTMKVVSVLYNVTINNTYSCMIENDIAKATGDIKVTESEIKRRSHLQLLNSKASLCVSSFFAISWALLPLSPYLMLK
Nature of the assay: cell-based or functional assay.

Assay [2] concerns the target T1, human B7-H4 expressed at the cell …. The experiment in a line: flow cytometry on macrophages. On the technique in general: Flow cytometry measures light scatter and fluorescence of single cells or particles in a stream.
The target of assay [3] is T2, recombinant B7-H4 protein (extracellular domain, IgC+IgV, fused to 6xHIS Tag) (human, UniProt Q7Z7D3 29-259, biotinylated in the capture ELISA (site not stated)).
T2 construct: also called rB7-H4; rhB7-H4
T2 sequence: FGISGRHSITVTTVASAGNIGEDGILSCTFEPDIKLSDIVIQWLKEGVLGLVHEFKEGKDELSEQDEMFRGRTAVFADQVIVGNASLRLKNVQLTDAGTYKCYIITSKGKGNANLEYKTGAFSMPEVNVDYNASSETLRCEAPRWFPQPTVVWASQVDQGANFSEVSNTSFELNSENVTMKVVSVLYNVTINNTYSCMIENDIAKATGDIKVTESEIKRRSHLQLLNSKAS
Nature of the assay: capture ELISA, immobilized scFv, biotinylated rB7-H4, SA-HRP. Here is the method:
FIG. 6A is a schematic representation of protein-based (FIG. 6B) and cell-based isolation (FIG. 6C) strategies. Protein-based and cell-based isolated anti-B7-H4 scFvs were plastic-immobilized and incubated with serial dilutions of biotinylated recombinant B7-H4 (black diamonds) or irrelevant control antigen (BSA, grey triangles). Protein binding to scFv was detected with SA-HRP. Colorimetric signal was developed with TMB substrate solution, quenched with sulfuric acid and read at 450 nm on a Biotek ELISA reader.
The yeast-display scFv library derived from ovarian cancer patients was first screened by magnetic and flow sorting for anti-B7-H4 scFv using progressively decreasing concentrations of human biotinylated B7-H4 recombinant protein (rhB7-H4). Briefly, the library was enriched magnetically 3 times for scFv that bound to 1 ug/ml biotinylated rhB7-H4, and two times flow sorted with 1 ug/ml and 0.5 ug/ml biotinylated rhB7-H4. Selected yeast-display scFv were flow sorted for c-myc/B7-H4 double positive clones. […] Binding to serial dilutions of biotinylated rB7-H4 or control protein was detected using streptavidin-HRP. Colorimetric signals were developed with TMB substrate solution quenched with sulfuric acid and read at 450 nm on a […] Sequencing of scFv clones 26 and 56 was identified 2 unique clones that were then produced and Ni purified.

B1: anti-B7H4 scFv clone 3#68 (scFv)
scFv: QPGLTQPPSASGTPGQRVTISCSGSSSNIGSNYVYWYQQFPGTAPKLLIYRNNQRPSGVPDRFSGSKSGTSASLAISGLRSEDEADYYCAAWDDSLSVWVFGGGTKVTVLGGSSRSSSSGGSGSGGGGQVTLKESGAEVKNPGSSVKVSCKASGGTFSSYAISWLRQAPGQGLEWMGWINPNSGGSDYAQRFQGRVTMTRDTSINTVYMELSRLRSDDTAVYYCARVEKRGYYYGMDVWGQGTMVTVSSFEGSEQ
B1: the “IFN-γ production of MART-1 TCR T cells in the presence of B7-H4+ TAMs” value in assay [1] was more than 2 fold.

B2: anti-B7H4 scFv clone 3#54 (scFv)
scFv: RPVLTQPPSAAGTPGQRVTISCSGSSSNIGSNYVYWYQQLPGMAPKLLIYTNNQRPSGVPGRFSGSKSGTSASLAISGLRSEDEADYYCAAWDDSLNGWVFGGGTELTVLGGSSRSSSSGGGGSGGGGQVQLQESGPGLVKPSETLSLTCNVSGRSVSSGFYWSWIRQRPGKGLEWVGSIYRSGLTYYNPSLKSRVTISVDTSKNQFSLKLSSVTAADTAVYYCARATPWYYYGMDVWGQGTTVTVSSFEGSEQ
In the case of B2, the “IFN-γ production of MART-1 TCR T cells in the presence of B7-H4+ TAMs” value in assay [1] is more than 2 fold.

B3: anti-B7H4 scFv clone 26 (scFv)
scFv: DIVMTQTPATLSVSPGKRATLSCRASQSVSSNYLAWYQQKPGQAPRLLIYGASRRATGIPDRFSGSGSGTDFTLTISSLQAEDVAVYYCQQYGSSPRTFGQGTKLEIKGGSSRSSSSGGGGSGGGGQVTLKESGAEVKNPGSSVKVSCKASGGTFSSYAISWLRQAPGQGLEWMGWINPNSGGSDYAQRFQGRVTMTRDTSINTVYMELSRLRSDDTAVYYCARVEKRGYYYGMDVWGQGTMVTVSSFEGSEQ
With B3, in assay [1], the “IFN-γ secretion of MART-1 TCR T cells in the presence of B7-H4+ TAMs” value was 1.5 fold.

B4: anti-B7H4 scFv clone 56 (scFv)
scFv: QPVLTQSHSVSESPGKTVTITCTGSGGNIATQYVQWYQQRPGSGPTTVIYDDDQRPSGVPDRFTGSIDSSSNSASLTISGLKTEDEADYYCQSYDSTNHGVFGGGAKVTVLGGSSRSSSSGGGGSGGGGQVQLQQWGPGLVKPSETLSLTCTVSGGSISSSSYYWGWIRQPPGKGLEWIGSIYYSGSTYYNPSLKSRVTISVDTSKNQFSLKLSSVTAADTAVYYCARLSKGYSSSWAYSYYGPDAWGQGTMVTVSSFEGSEQ
notes: Human scFv from a yeast-display library, made soluble from the yeast secretion vector p416-BCCP; Soluble scFv was detected through V5 and purified on Ni; also called scFv #56; 56 scFv
With B4, the binding result in assay [2] and in assay [3] was “binds” in each case.
